Reference: US20260242478A1 (published 2026)
Where no end group is shown, it is not given here.

Key:
[1] = target: T1, Anti-CD28 scFv (VH - linker 1 - VL) (biotinylated (site not given)); experiment: phage binding ELISA on anti-CD28 scFv plate; wells pre-incubated with soluble CD28 as competitor;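 also: clonal phage supernatants tested, bound phage read out with an HRP-linked anti-M13 antibody, reference wells received blocking buffer lacking CD28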
[2] = target: T1, Anti-CD28 scFv (VH - linker 1 - VL); experiment: phage binding ELISA; biotinylated anti-CD28 scFv on neutravidin plate, bound phage detected with anti-M13-HRP
Experimental: Clonal phage were harvested as crude supernatants and screened via standard enzyme linked immunosorbent assays (ELISAs). […] Prior to the addition of clonal phage, wells were incubated with blocking buffer and CD28 soluble protein or blocking buffer alone. Without washing or aspirating, clonal phage supernatants were then added to the wells and incubated for a short time. Wells were then washed followed by detection of bound phage using a horse radish peroxidase conjugated anti-M13 antibody.

[3] = target: T2, Anti-CD28 scFv (VH - linker 1 - VL) (biotinylated (site not stated)); experiment: phage ELISA as above, wells pre-incubated with soluble CD28 (competitor);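 also: ELISA of crude clonal phage supernatants added to wells pre-treated with soluble CD28 in blocking buffer, bound phage read out with HRP-conjugated anti-M13 antibody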
T2 construct: Biotinylated scFv captured on neutravidin coated plates in the panning ELISA
T2 sequence (scFv, as listed by the source): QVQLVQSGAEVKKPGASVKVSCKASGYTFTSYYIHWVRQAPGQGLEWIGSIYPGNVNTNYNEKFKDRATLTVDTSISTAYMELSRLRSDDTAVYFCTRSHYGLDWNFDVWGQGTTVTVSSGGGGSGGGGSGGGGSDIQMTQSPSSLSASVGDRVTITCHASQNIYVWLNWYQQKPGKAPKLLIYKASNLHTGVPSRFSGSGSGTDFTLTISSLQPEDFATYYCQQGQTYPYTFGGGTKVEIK

[4] = target: T2, Anti-CD28 scFv (VH - linker 1 - VL); experiment: phage ELISA; biotinylated anti-CD28 scFv on neutravidin plate, clonal phage supernatant, anti-M13-HRP;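 also: before the phage were added, wells were pre-incubated with soluble CD28 protein in blocking buffer, or with blocking buffer alone, and were not washed in between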
[5] = target: anti-CD28 scFv (VH - linker 1 - VL) (biotinylated (site not stated)); experiment: same phage ELISA, wells pre-incubated with soluble CD28 (competitor)
Chain of anti-CD28 scFv (VH - linker 1 - VL) (biotinylated (site not stated)) (scFv, as listed by the source): as above

[6] = target: T3, Anti-CD28 scFv (VH - linker 1 - VL) (biotinylated (site not stated)); experiment: phage ELISA; biotinylated anti-CD28 scFv on neutravidin plate, clonal phage supernatant, anti-M13-HRP detection;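 also: before phage addition, wells were pretreated with soluble CD28 protein in blocking buffer, or with blocking buffer only as the comparison, then phage were added without washing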
T3 construct: Biotinylated and captured on neutravidin-coated plates in the phage panning ELISA
T3 sequence (scFv, as listed by the source): as above

T1 sequence (scFv, as listed by the source): as above

Binder | CD28 scFv signal in presence of CD28 [1] | CD28 scFv signal [2] | also measured
MDWCPFDLWHVCYN (cysteine pairing not given here; also: fused to phage pIII, linker and fusion site not given here, Clonal phage of the Peptide-9 library, tested as crude phage supernatant; not shown: pIII of the bacteriophage) [Phage-256] | 0.651 | 2.6 | 
WVSCLRHHWLECFH (cysteine pairing not given here; also: displayed on phage as fusion to pIII, fusion limits and linker not given here, Clonal phage of the Peptide-9 library, tested as crude phage supernatant; not shown: pIII of the bacteriophage) [Phage-274] | 0.858 | 0.723 | 
MDWCPRFLWHECFN (cysteine pairing not given here; also: fused to phage pIII, linker and fusion site not given here, Clonal phage of the Peptide-9 library, tested as crude phage supernatant; not shown: pIII of the bacteriophage) [Phage-257] | 0.351 | 2.59 | 
MDWCPRHLWHVCFN (cysteine pairing not given here; also: displayed on phage pIII, linker not given here, Clonal phage of the Peptide-9 library, tested as crude phage supernatant; not shown: pIII of the bacteriophage) [Phage-264] | 0.636 | 2.67 | 
MDWCPRHLWSVCFN (cysteine pairing not given here; also: fused to phage pIII, linker and fusion site not given here, Clonal phage of the Peptide-9 library, tested as crude phage supernatant; not shown: pIII of the bacteriophage) [Phage-255] | 0.825 | 2.65 | 
MTLCLSVDLVHCWY (cysteine pairing not given here; also: displayed on bacteriophage as fusion to pIII, fusion limits and linker not given here, Clonal phage of the Peptide-9 library, tested as crude phage supernatant; not shown: pIII of the bacteriophage) [Phage-267] | 0.093 | 0.632 | 
MDWCPRDFWAFCFF (cysteine pairing not given here; also: displayed on phage as fusion to pIII, fusion limits and linker not given here, Clonal phage of the Peptide-9 library, tested as crude phage supernatant; not shown: pIII of the bacteriophage) [Phage-270] | 0.655 | 2.37 | 
DSFCTWSAWQECGR (cysteine pairing not given here; also: phage-displayed pIII fusion, pIII and linker not given here, Clonal phage of the Peptide-9 library, tested as crude phage supernatant; not shown: pIII of the bacteriophage) [Phage-269] | 0.101 | 0.13 | 
MVGCATSMWNRCLT (cysteine pairing not given here; also: fused to phage pIII, linker and fusion site not given here, Clonal phage of the Peptide-9 library, tested as crude phage supernatant; not shown: pIII of the bacteriophage) [Phage-253] | 0.746 | 0.77 | 
MDWCPRYLWAECFN (cysteine pairing not given here; also: displayed on phage as fusion to pIII, fusion limits and linker not given here, Clonal phage of the Peptide-9 library, tested as crude phage supernatant; not shown: pIII of the bacteriophage) [Phage-279] | 1.14 | 2.74 | 
ILRCQMNLQDECLN [Phage-385] |  |  | CD28 scFv signal in presence of CD28 [3]: 0.077; CD28 scFv signal [4]: 0.083
MDWCPRSHWSECFS (cysteine pairing not given here; also: displayed on phage as fusion to pIII, fusion limits and linker not given here, Clonal phage of the Peptide-9 library, tested as crude phage supernatant; not shown: pIII of the bacteriophage) [Phage-277] | 0.087 | 0.253 | 
MYWCATSMWNRCFV (cysteine pairing not given here; also: displayed on phage pIII, linker not given here, Clonal phage of the Peptide-9 library, tested as crude phage supernatant; not shown: pIII of the bacteriophage) [Phage-262] | 0.415 | 0.398 | 
MDWCPRDMWSVCFS (peptide, not shown: large carriers, cysteine pairing not given here; also: fused to phage pIII, linker not given here, Clonal phage supernatant; the listing entry decides) [Phage-32] |  |  | CD28 scFv signal in presence of CD28 [5]: 0.207
NHWCPTTLWNRCVA [Phage-386] |  |  | CD28 scFv signal in presence of CD28 [3]: 0.093; CD28 scFv signal [4]: 0.078
MDWCPRHLWLECFN [Phage-387] |  |  | CD28 scFv signal in presence of CD28 [3]: 0.074; CD28 scFv signal [4]: 0.066

Binder | CD28 scFv signal in presence of CD28 [1] | CD28 scFv signal [2] | also measured
MNWCPKDIWYLCFN (peptide, not shown: large carriers, Clonal phage supernatant) [Phage-22] |  |  | CD28 scFv signal in presence of CD28 [5]: 0.168
IMWCPTSLWNRCVT [Phage-384] |  |  | CD28 scFv signal in presence of CD28 [3]: 0.129; CD28 scFv signal [4]: 0.161
MDWCPMFMWHECFN (cysteine pairing not given here; also: displayed on phage as pIII fusion, fusion limits and linker not given here, Clonal phage of the Peptide-9 library, tested as crude phage supernatant; not shown: pIII of the bacteriophage) [Phage-261] | 1.04 | 2.23 | 
VDWCPAHMWNECYN (tested as crude clonal phage supernatant) [Phage-419 clonal phage peptide VDWCPAHMWNECYN] |  |  | CD28 scFv signal [6]: 0.664
VTSCPTTMWNRCFS (cysteine pairing not given here; also: displayed on bacteriophage as fusion to pIII, fusion limits and linker not given here, Clonal phage of the Peptide-9 library, tested as crude phage supernatant; not shown: pIII of the bacteriophage) [Phage-266] | 0.546 | 1.22 | 
IDWCPKIHWDLCYF (cysteine pairing not given here; also: displayed on phage as fusion to pIII, fusion limits and linker not given here, Clonal phage of the Peptide-9 library, tested as crude phage supernatant; not shown: pIII of the bacteriophage) [Phage-276] | 0.082 | 0.295 | 
MVWCMSVGWAVCLN (cysteine pairing not given here; also: displayed on phage as fusion to pIII, fusion limits and linker not given here, Clonal phage of the Peptide-9 library, tested as crude phage supernatant; not shown: pIII of the bacteriophage) [Phage-272] | 0.284 | 0.271 | 
MDWCPRDHWVDCYS (cysteine pairing not given here; also: displayed on phage as fusion to pIII, fusion limits and linker not given here, Clonal phage of the Peptide-9 library, tested as crude phage supernatant; not shown: pIII of the bacteriophage) [Phage-275] | 0.092 | 0.671 | 
MDWCPRHMWINCFA (cysteine pairing not given here; also: fused to phage pIII, linker and fusion site not given here, Clonal phage of the Peptide-9 library, tested as crude phage supernatant; not shown: pIII of the bacteriophage) [Phage-252] | 0.165 | 0.92 | 
MDWCPRYLWHVCFA (peptide, not shown: large carriers, cysteine pairing not given here; also: fused to phage pIII, linker not given here, Clonal phage supernatant) [Phage-36] |  |  | CD28 scFv signal in presence of CD28 [5]: 0.226
MDWCPRSLWHECFA (peptide, not shown: large carriers, cysteine pairing not given here; also: fused to phage pIII, linker not given here, Clonal phage supernatant) [Phage-35] |  |  | CD28 scFv signal in presence of CD28 [5]: 0.255
MDWCPRHMWHECFA (cysteine pairing not given here; also: displayed on phage pIII, linker not given here, Clonal phage of the Peptide-9 library, tested as crude phage supernatant; not shown: pIII of the bacteriophage) [Phage-263] | 0.298 | 2.52 | 
MDWCPRFMWSECFS (cysteine pairing not given here; also: fused to phage pIII, linker and fusion site not given here, Clonal phage of the Peptide-9 library, tested as crude phage supernatant; not shown: pIII of the bacteriophage) [Phage-251] | 0.137 | 1.01 | 
MDWCPSNMWNECFF (tested as crude clonal phage supernatant) [Phage-416 clonal phage peptide MDWCPSNMWNECFF] |  |  | CD28 scFv signal [6]: 0.983
MDWCPRNLWHACFN (cysteine pairing not given here; also: fused to phage pIII, linker and fusion site not given here, Clonal phage of the Peptide-9 library, tested as crude phage supernatant; not shown: pIII of the bacteriophage) [Phage-259] | 0.112 | 1.57 | 
MDWCPRYLWSECFA (cysteine pairing not given here; also: fused to phage pIII, linker and fusion site not given here, Clonal phage of the Peptide-9 library, tested as crude phage supernatant; not shown: pIII of the bacteriophage) [Phage-254] | 0.513 | 2.71 | 
